Reference: PMC3522573 (Oncogene, 2012)

Columns and labels:
Assay in all cases: two-hybrid
Gal4(DBD)-Neh6 = biological target: T1, Gal4(DBD)-Neh6 (mouse, UniProt Q60795 300-380)
T1 sequence (looked up): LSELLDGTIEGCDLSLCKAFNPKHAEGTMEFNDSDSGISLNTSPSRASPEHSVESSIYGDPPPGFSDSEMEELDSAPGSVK

Gal4(DBD)-Neh6^ΔSDSGIS = biological target: T2, Gal4(DBD)-Neh6^ΔSDSGIS (mouse, UniProt Q60795 300-380, Δ333-338 (called ΔSDSGIS))
T2 sequence (looked up): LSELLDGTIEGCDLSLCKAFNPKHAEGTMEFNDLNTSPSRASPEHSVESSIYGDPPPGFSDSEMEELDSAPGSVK

Gal4(DBD)-Neh6^ΔDSAPGS = biological target: T3, Gal4(DBD)-Neh6^ΔDSAPGS (mouse, UniProt Q60795 300-380, Δ373-378 (called ΔDSAPGS))
T3 sequence (looked up): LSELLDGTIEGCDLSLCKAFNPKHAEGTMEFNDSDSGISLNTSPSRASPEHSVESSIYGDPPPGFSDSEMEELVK

fold increase in Gal4-driven luciferase activity over either fusion alone (Gal4(DBD)-Neh6): ~3.2 fold
fold increase in Gal4-driven luciferase activity with GSK-3β^Δ9 co-expressed (Gal4(DBD)-Neh6): 4 fold
fold increase in Gal4-driven luciferase activity over either fusion alone (Gal4(DBD)-Neh6^ΔSDSGIS): 1.5 fold
fold increase in Gal4-driven luciferase activity with GSK-3β^Δ9 co-expressed (Gal4(DBD)-Neh6^ΔDSAPGS): 3.1 fold
B1: Gal4(AD)-WD40 (domain or fragment, mouse, UniProt Q3ULA2 303-581, looked up)
chain: SKGVYCLQYDDQKIVSGLRDNTIKIWDKSTLECKRILTGHTGSVLCLQYDERVIITGSSDSTVRVWDVNAGEMLNTLIHHCEAVLHLRFNNGMMVTCSKDRSIAVWDMASPTDITLRRVLVGHRAAVNVVDFDDKYIVSASGDRTIKVWNTSTCEFVRTLNGHKRGIACLQYRDRLVVSGSSDNTIRLWDIECGACLRVLEGHEELVRCIRFDNKRIVSGAYDGKIKVWDLMAALDPRAPAGTLCLRTLVEHSGRVFRLQFDEFQIVSSSHDDTILIWD
